System: MS2 coat protein
Assay: apparent KD of MS2 coat protein; designed switch direction (-1 OFF switch, 1 ON switch): -1; higher = weaker reporter binding
In short: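 The apparent KD reported per design is the median over clusters of curve fits to normalised cluster fluorescence. The RNA switches were transcribed on Illumina chips by stalled E. coli RNA polymerase. SNAP-549-labelled MS2 coat protein was titrated from 0.7 or 1.5 nM, doubling up to 3 µM, in Tris-HCl pH 7.5 buffer containing KCl, MgCl2, BSA, DTT, tRNA and Tween-20, with no input, 200 uM small-molecule ligand, or an oligonucleotide input.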

[1] = Eterna round: R95, input ligand: microRNA oligo, concentration not stated
[2] = Eterna round: R95, input ligand: FMN 200 uM
[3] = Eterna round: R95, input ligand: none
[4] = input ligand: microRNA oligo, concentration not stated

Sequence | apparent KD of MS2 coat protein [1] [nM] | apparent KD of MS2 coat protein (input ligand: FMN 200 uM) [nM] | apparent KD of MS2 coat protein (input ligand: none) [nM] | other results
UUUUAACAUGAGGAUCACCCAUGUGAGGAUAUCGAAAUUUAUAUUAAUAUUAAUAAAUCGAGAAGGCACAUUUU [JMF 20] (puzzle: Exclusion 1) | 109 |  |  | 
ACGCUGUGAGGAUAUACAUGAGGAUCACCCAUGUUAAGGAAGUCUUGGUUAAUUUGGAGUAGAAGGCGCUUAUU [JR_Ex3_Sub016] (Eterna round: R97, puzzle: Exclusion 3) |  | 31.5 | 34.9 | 
GUCCUCAUGACGCCUAAACACAUGAGGAUCACCCAUGUACAGGCUUUUUGUCGUCUUAUAAUAAAACCGAGGAUGCG [Xelaanen] (puzzle: Sensor v3, turn-off variant 1) | 319 |  |  | apparent KD of MS2 coat protein [2]: 24.4 nM; apparent KD of MS2 coat protein [3]: 29.8 nM
GGGAGGAGAGUGAGGAUAUUCGAGGGAGGGAGGGUGAAGAAGGCACAUGAGGAUCACCCAUGUGGUGGGAGGUU [RHig 1] (Eterna round: R97, puzzle: Brourd's mod of Exclusion 4) |  | 23.9 | 38.3 | 
UUAUAAAGUGUGAGGAUAUGCUGGUCCAUAGAUCAGCAGAAGGCACAUGAGGAUCACCCAUGUAAUAUAUUUUU [Mat - Exclusion 4 - JL Mod - D43] (puzzle: Brourd's mod of Exclusion 4) | 27.2 |  |  | 
AACUCACAUGAGGAUCACCCAUGUGAGGAUAUGGUUUCGCUGGCCGUAGCCAGUGGAACCAGAAGGCGCGUGAU [Mat - Exclusion 1 - JL Mod - D26] (Eterna round: R97, puzzle: Exclusion 1) |  | 52.4 | 58.9 | 
GGAAAACAUGAGGAUCACCCAUGUAAGGAUAUGCAAAAGGAUAUAGAAGGAAUAAAAAGCAGAAGGUACAAAGG [salish99-ex1_r3_096] (puzzle: Exclusion 1) | 45.7 |  |  | apparent KD of MS2 coat protein [2]: 116 nM; apparent KD of MS2 coat protein [3]: 66.6 nM
AAAUUGCUAGAGGAUAUCGGAUAGGAUCUAUCGCGAGAAGGCUGGACAUGAGGAUCACCCAUGUUCUGUUGGGA [EX6 #29] (Eterna round: R97, puzzle: Exclusion 6) |  | 57.4 | 25.2 | 
CUGGUCCGAGGAUAUUUUAUGUGAUACAUGAGGAUCACCCAUGUUAUAUGAUGGAUGUUAAAAGAAGGCGGACUAG [Mat - Exclusion 5 - JL mod - D80] (puzzle: Exclusion 5) | 102 |  |  | apparent KD of MS2 coat protein [2]: 77 nM; apparent KD of MS2 coat protein [3]: 114 nM
GAAAAGGUAGGAUAUACGAAAAAAAAGGGUAGAAAAGAAACACAUGAGGAUCACCCAUGUAGAAGGACCAAAAG [salish99_ex2_r3_016] (puzzle: Exclusion 2) | 27.8 |  |  | apparent KD of MS2 coat protein [2]: 78 nM; apparent KD of MS2 coat protein [3]: 21.5 nM
CAUACACAUGAGGAUCACCCAUGUGAGGAUAUGCGUACGUUGUCCGUAGGCGACGUGCGCAGAAGGCGCAUGAG [JL-ex1-3.13 Eli mod] (puzzle: Exclusion 1) | 90.9 |  |  | apparent KD of MS2 coat protein [2]: 27.6 nM; apparent KD of MS2 coat protein [3]: 91.6 nM
CCGAAUAUGCAGGAUAUCGUAUAGGAAACUAUACGAGAAGGGUAAACAUGAGGAUCACCCAUGUUCCUUAACGG [Mat - Exclusion 6 - Eli Mod - D81] (puzzle: Exclusion 6) | 20.3 |  |  | 
ACAUGAGGAUCACCCAUGUGACCACAAUGGCUGAUGUAACGACAGGAUAUUCGUGAAUAUCUAACGAAGAAGGGUCAUGACUGG [Deportation 62 - Jieux - Exclusion NG 3] (Eterna round: R96, puzzle: Exclusion NG 3) |  | 98.8 | 60.2 | apparent KD of MS2 coat protein [4]: 52.7 nM
AGCGGCCGAGGAUAUACAAUCCUCCUGGCAGCCUGUCUGCCACAUGAGGAUCACCCAUGUAGAAGGCGGACCGC [Xelezabi] (puzzle: Exclusion 2) | 128 |  |  | 
AUGAAGUAAGGAUAUACAUGAGGAUCACCCAUGUAAAGAAAAGUAAUGGGAGUAAGAAGUAGAAGGUACGAGAA [JR_Exclu3_Sub061] (puzzle: Exclusion 3) | 48.2 |  |  | apparent KD of MS2 coat protein [2]: 53.4 nM; apparent KD of MS2 coat protein [3]: 54.1 nM
AACAUGUGAGGAUAUUUAAGAAAAGAAAAGAAAGAAAAGAAAAAGAAGGCACAUGAGGAUCACCCAUGUAAGAA [EteRNA is fun!] (Eterna round: R96, puzzle: Exclusion 4) |  |  |  | apparent KD of MS2 coat protein [4]: 19 nM
CCCAAGUCAGGAUAUGGAACACAGAGACAUCUCUGUGCCCACCAGAAGGGACAUGAGGAUCACCCAUGUGAUGA [Soesat] (puzzle: Exclusion 4) | 56.6 |  |  | 
AGGUACUUCAGGAGACAUGAGGAUCACCCAUGUUGAGUUAGCGAGGAUAUCGGUAACCAUUGUUAUGAGAAGGCGCAAACCAGA [Ex NG3 #42] (Eterna round: R96, puzzle: Exclusion NG 3) |  | 25.9 | 15.3 | apparent KD of MS2 coat protein [4]: 15 nM

Sequence | apparent KD of MS2 coat protein [1] [nM] | apparent KD of MS2 coat protein (input ligand: FMN 200 uM) [nM] | apparent KD of MS2 coat protein (input ligand: none) [nM] | other results
ACAAGCUUUUGCUCGUCUUACAUGAGGAUCACCCAUGUCGGGAGCAUGCAUACGUCCAGCAUCUGGACCGUAGCAGA [-25.7, -49.8 kcal, 25% A] (Eterna round: R97, puzzle: Sensor, turn-off variant 1) |  | 16.3 | 18.1 | 
GAUCUAGGUGUCAGGAUAUGUAGCUAGGUAAGCAGACAGAAGGGACAUGAGGAUCACCCAUGUCGCAAAUUAAU [Gezadi] (Eterna round: R97, puzzle: Brourd's mod of Exclusion 4) |  | 86 | 18.5 | 
AUCGUGUUAGGAUAUACACGACGCUGGGUAGCGGGCGGAGGGUAGAAGGGACAUGAGGAUCACCCAUGUUCGGG [Somalaesar] (Eterna round: R97, puzzle: Exclusion 4) |  | 41.2 | 46.6 | 
CGGUGCUGAGGAUAUACAUGAGGAUCACCCAUGUGUUCCUGCUAGCGUACUGGCAGAUGUAGAAGGCGGUACUG [JL-ex3-3.44 Brourd mod] (puzzle: Exclusion 3) | 20.8 |  |  | apparent KD of MS2 coat protein [2]: 84 nM; apparent KD of MS2 coat protein [3]: 26.7 nM
ACAUGUUGCGCAGGAUAUGAGACACAUGAGGAUCACCCAUGUGGCUACAUGUCAUACCAAGCGUCUCAGAAGGGUGUGAACAUG [Ex NG2 #34] (Eterna round: R96, puzzle: Exclusion NG 2) |  | 18.7 | 18.1 | apparent KD of MS2 coat protein [4]: 11.7 nM
AAGAAGCUAGGAUAUCACACUGACAACAUGAGGAUCACCCAUGUAGGUGAUCGGUUAGCUUGAGAAGGAGCGGAGG [Laedanes] (puzzle: Exclusion 5) | 46.9 |  |  | apparent KD of MS2 coat protein [2]: 83.5 nM; apparent KD of MS2 coat protein [3]: 78.3 nM
UAUUAAACAAGCAGAUCCCACAUGAGGAUCACCCAUGUGCUCGUCUUAUAAGGUACUGUGACGAGAGUCACGGUACC [Mat - Sensor, turn-off var - Eli Mod - D63] (Eterna round: R97, puzzle: Sensor, turn-off variant 1) |  | 42.5 | 45.2 | 
CAAUUCCGAGGAUAUACAUGAGGAUCACCCAUGUCGGGCCUCAGCGUUUAGCGCCUAAGUAGAAGGUGGGUUUC [JL Riri mod 4] (puzzle: Exclusion 3) | 37.1 |  |  | 
GGAUAGUGAGGAUAUGCAUACGGUGUAAGUCCCAGAUCGAAACAUGAGGAUCACCCAUGUAGAAGGCGCAAAAC [Begerila] (puzzle: Exclusion 2) | 20.2 |  |  | 
UAGAAUCGAGGAUAUACAUGAGGAUCACCCAUGUGUGGCCAUUUGGUGUGGUCGUCAGGUAGAAGGCGAUUACA [Exclusion 3 - Mod of Jieux's Gilly Gone Silly 23 v.5] (puzzle: Exclusion 3) | 141 |  |  | 
UUUUACAUCUAUGGGAGUGACAUGAGGAUCACCCAUGUAUGUCUUGUUUUUUGUUCGUCUAGGACUUUCUGAUCAGU [JR_SV3TOV1_Sub033] (puzzle: Sensor v3, turn-off variant 1) | 222 |  |  | apparent KD of MS2 coat protein [2]: 565 nM; apparent KD of MS2 coat protein [3]: 730 nM
CUGAGUUAAGGAUAUACAUGAGGAUCACCCAUGUAAAGUAGCUUGCGUACAGGCAGAUGUAGAAGGUAAUUCGG [Mod of JL 8 - Jieux - Exclusion 3] (Eterna round: R97, puzzle: Exclusion 3) |  | 37.2 |  | 
CAGCCCUGAGGAUAUCCCUCCUUGUACAUGAGGAUCACCCAUGUUCUCCUCUGGGCUUUGGGAGAAGGCAGAUCUC [Megrez-6.9] (Eterna round: R97, puzzle: Exclusion 5) |  | 41.1 | 46.5 | 
AGCAUGUAAGGAUAUGCAACACGACGUUCAAUCGUCGUGCCGCAGAAGGUACAUGAGGAUCACCCAUGUGCUCC [Xesodied] (puzzle: Exclusion 4) | 75.4 |  |  | 
AUUUUGUGAGGAUAUUAGUAGUAAAUGAAUAAAAUUAUUACUGAGAAGGCACAUGAGGAUCACCCAUGUUCCUA [Mat - Exclusion 4 - Eli Mod - D7] (Eterna round: R97, puzzle: Exclusion 4) |  | 175 | 19.2 | 
AGCCCUGCAGGAUAUGCCCGGGAUAACAUGAGGAUCACCCAUGUGACUGAUUGUUAUCCUGCAGAAGGGCAUGGGA [JL-EX5-4.13 ViennaUCT mod] (Eterna round: R97, puzzle: Exclusion 5) |  | 547 | 1000 | 
CUGGUCCGAGGAUAUAUGAUGUGAAACAUGAGGAUCACCCAUGUAAUAUUAUGGAUGGAAAUAGAAGGCGGACUAG [Mat - Exclusion 5 - JL mod - D36] (puzzle: Exclusion 5) | 49.7 |  |  | apparent KD of MS2 coat protein [2]: 63.5 nM; apparent KD of MS2 coat protein [3]: 65.2 nM
GCUAGUCAUGUCAGGAUAUGCUGUACCUUGGUACAGCAGAAGGGACAUGAGGAUCACCCAUGUGCCUAGCUAGC [JL-BMX4-4.07] (Eterna round: R97, puzzle: Brourd's mod of Exclusion 4) |  | 412 | 37.7 | 

— the supplement of paper PMC9170038
